Target: SDF-1 receptor CXCR4 on INS-1 clonal beta cells (UniProt O08565)
Assay: cell-based or functional assay

Sequence of SDF-1 receptor CXCR4 on INS-1 clonal beta cells (O08565 whole entry): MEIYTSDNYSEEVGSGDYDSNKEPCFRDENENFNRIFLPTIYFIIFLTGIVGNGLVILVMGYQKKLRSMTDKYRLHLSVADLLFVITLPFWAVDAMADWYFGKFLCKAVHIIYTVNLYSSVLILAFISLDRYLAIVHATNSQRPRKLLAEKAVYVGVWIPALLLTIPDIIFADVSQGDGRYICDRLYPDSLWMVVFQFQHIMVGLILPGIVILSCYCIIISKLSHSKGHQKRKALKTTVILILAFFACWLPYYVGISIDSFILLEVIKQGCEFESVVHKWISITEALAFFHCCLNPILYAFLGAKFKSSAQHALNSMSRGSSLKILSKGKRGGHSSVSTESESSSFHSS

“stromal cell-derived factor-1 (SDF-1) (ligand)” was tested. Which Wnt signaling reporter assay (TOPflash/FOPflash luciferase) in INS-1 cells did it give?
Its Wnt signaling reporter assay (TOPflash/FOPflash luciferase) in INS-1 cells is 0.4 nM.
